The record followed here is patent US20030096275.

A word on the Kd: it is the concentration at which binding is half-saturated. High values mean lower affinity, low ones higher affinity.

For the data set, the target named is T1, ArsR (Escherichia coli) (UniProt P15905).
T1 sequence: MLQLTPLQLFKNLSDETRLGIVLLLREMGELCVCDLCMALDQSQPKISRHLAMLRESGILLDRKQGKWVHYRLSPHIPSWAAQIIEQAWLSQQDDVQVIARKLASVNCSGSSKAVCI
The data set can be described thus: SPR. The note with it: ±10 nM, HBS-EP pH 7.4, 25 C.

Setting [1] is: one value stated for all sequences although affinities said to differ, binding inhibited about 55% by 100 uM phenylarsine oxide ….
The mark [2] stands for this setting: one value stated for all sequences.

“CTGCACTTACACATTCGTTAAGTCATATATGTTTTTGACTTA / TAAGTCAAAAACATATATGACTTAACGAATGTGTAAGTGC [CHROML1]”: under setting [1], the dissociation constant (Kd) was 500 nM.

The sequence “TTAAGTCATATATGTTTTTGACTTA (double strand) [CHROMS1]” gave a Kd under setting [2] of 500 nM.

“TTAATCATATGCGTTTTTGGTTA / TAACCAAAAACGCATATGATT [PLASS1]”: the Kd under setting [2] stood at 500 nM.

“TTAATCATATGCGTTTTTGGTTATGTGTTG / CAACACATAACCAAAAACGCATATGATT [PLASL1]” yielded a Kd under setting [1] of 500 nM. This counts as sub-micromolar.
